B1: Transcriptional coactivator YAP1 (Homo sapiens), P46937-3 (parent)
chain: MDPGQQPPPQPAPQGQGQPPSQPPQGQGPPSGPGQPAPAATQAAPQAPPAGHQIVHVRGDSETDLEALFNAVMNPKTANVPQTVPMRLRKLPDSFFKPPEPKSHSRQASTDAGTAGALTPQHVRAHSSPASLQLGAVSPGTLTPTGVVSGPAATPTAQHLRQSSFEIPDDVPLPAGWEMAKTSSGQRYFLNHIDQTTTWQDPRKAMLSQMNVTAPTSPPVQQNMMNSASAMNQRISQSAPVKQPPPLAPQSPQGGVMGGSNSNQQQQMRLQQLQMEKERLRLKQQELLRQVRPQELALRSQLPTLEQDGGTQNPVSSPGMSQELRTMTTNSSDPFLNSGTYHSRDESTDSGLSMSSYSVPRTPDDFLNSVDEMDTGDTINQSTLPSQQNRFPDYLEAIPGTNVDLGTLEGDGMNIEGEELMPSLQEALSSDILNDMESVLAATKLDKESFLTWL

Consider one variant from IntAct's records for PubMed 23245941.

The variants in this test derive from B1. The settings on record: with ctnb1_human CTNNB1, P35222.
ctnb1_human CTNNB1, P35222, sequence (P35222 whole entry): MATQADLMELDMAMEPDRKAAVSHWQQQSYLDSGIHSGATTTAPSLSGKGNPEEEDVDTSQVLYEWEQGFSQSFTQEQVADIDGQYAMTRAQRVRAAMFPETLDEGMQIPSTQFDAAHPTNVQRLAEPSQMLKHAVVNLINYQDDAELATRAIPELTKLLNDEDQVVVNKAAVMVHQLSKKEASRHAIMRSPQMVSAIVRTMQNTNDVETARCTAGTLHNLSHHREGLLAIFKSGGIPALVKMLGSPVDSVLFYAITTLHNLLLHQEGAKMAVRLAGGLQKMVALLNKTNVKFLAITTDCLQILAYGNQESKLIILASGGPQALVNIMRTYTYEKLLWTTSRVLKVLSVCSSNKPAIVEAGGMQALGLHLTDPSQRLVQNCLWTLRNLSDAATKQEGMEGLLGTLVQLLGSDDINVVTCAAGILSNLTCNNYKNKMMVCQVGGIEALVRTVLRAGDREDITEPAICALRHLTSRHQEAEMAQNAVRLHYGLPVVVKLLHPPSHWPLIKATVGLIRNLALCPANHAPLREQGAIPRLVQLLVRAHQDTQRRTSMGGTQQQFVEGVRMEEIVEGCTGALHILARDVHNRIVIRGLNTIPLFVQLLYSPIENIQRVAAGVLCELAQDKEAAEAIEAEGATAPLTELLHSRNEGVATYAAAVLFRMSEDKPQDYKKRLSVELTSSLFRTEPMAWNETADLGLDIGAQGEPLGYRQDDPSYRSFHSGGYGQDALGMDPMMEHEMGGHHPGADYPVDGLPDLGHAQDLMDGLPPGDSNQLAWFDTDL
For the variant Y357F, the “effect of a mutation on the interaction” value is listed as “increasing interaction strength”.
